pKd: −log10 of the molar value.
Key:
[1] = biological target: T1, RNA polymerase sigma70 holoenzyme, molecular beacon derivative (Ec Esigma70 beacon) (Escherichia coli) (UniProt P0A7Z4+P0A7Z4+P0A8V2+P0A8T7+P0A800+P00579); assay: RNAP beacon fluorescence; conditions: Equilibrium RNAP molecular beacon fluorescence, 25 C and 1 nM RNAP in competition assays, buffer, salt and pH not in material, Kd error 20% (>0.4 nM), ~50% …
[2] = biological target: T1, RNA polymerase sigma70 holoenzyme, molecular beacon derivative (Ec Esigma70 beacon) (Escherichia coli); assay: competition; conditions: Equilibrium RNAP molecular beacon fluorescence; 25 C and 1 nM RNAP in competition assays; buffer, salt and pH not in material; Kd error 20% (>0.4 nM), ~50% …

## TATTTGACATCAGGAAAATTTTTCTGTTTAAT (double strand) [probe 23(-11T)]
[1]
  pKd: 7.80

## TATAATGGGTTCAT [probe 30]
[1]
  pKd: 7.14

## TATTTGACATCAGGAAAATTTTTTGGAATAA / TCCAAAAAATTTTCCTGATGTCAAATA [probe 17(-12A)]
[1]; strongly weaker than probe 17
  binding signal (fold tighter than 16(-12A)): 6

## TATTTGACATCAGGAAAATTTTTCTGTATAA / ACAGAAAAATTTTCCTGATGTCAAATA [probe 5]
[2]
  binding signal (fold tighter than probe 2): 50

## TATTTGACATCAGGAAAATTTTTCTGTT / ACAGAAAAATTTTCCTGATGTCAAATA [probe 2(-11T)]
[1]
  binding signal (fold weaker than probe 2): 5

## TATTTGACATCAGGAAAATTTTTCTGTATAA / CAGAAAAATTTTCCTGATGTCAAATA [probe 31]
[2]
  binding signal (fold weaker than probe 5): 10

## AAAAAAAGAATTTGACATCAGGAAAATTTTTTGGTTGCT (double strand) [probe 25]
[1]
  pKd: 7.96

## TATTTGACATCAGGAAAATTTTTCTGTA / TTATACAGAAAAATTTTCCTGATGTCAAATA [probe 28]
[1]
  binding signal (fold tighter than probe 19): 5

## TATTTGACATCAGGAAAATTTTTCTGTTTAA / ACAGAAAAATTTTCCTGATGTCAAATA [probe 5(-11T)]
[1]
  binding signal (fold weaker than probe 5): 200

## GGAAAATTTTTTGGTTTAATAGA / ACCAAAAAATTTTCC [probe 9(-11T)]
[1]
  binding signal (fold weaker than probe 9): 300

## TATTTGACATCAGGAAAATTTTTTGGA (double strand) [probe 15(-12A)]
[1]
  binding signal (fold weaker than probe 15): 4

## TATTTGACATCAGGAAAATTTTTCTGTTGTTA / ACAGAAAAATTTTCCTGATGTCAAATA [probe 11(-7A)]
[1]
  binding signal (fold weaker than probe 11): 2.4

## TATTTGACATCAGGAAAATTTTTCTGTTT / ACAGAAAAATTTTCCTGATGTCAAATA [probe 3(-11T)]
[1]
  binding signal (fold weaker than probe 3): 5

## TATTTGCTTTCAGGAAAATTTTTCTGTATAAA / CAGAAAAATTTTCCTGAAAGCAAATA [probe 8(-7A)]
[1]
  binding signal (fold weaker than probe 8): 210

## TGGTTGACTTTTGCCAGATACTGAGGCTGGCA / GCCTCAGTATCTGGCAAAAGTCAACCA [probe 12(-7A)]
[1]
  pKd: 7.00

## AAAAAAAGAATTTGACATCAGGAAAATTTTTTGGTTGCT / ACCAAAAAATTTTCCTGATGTCAAATTCTTTTTTT [probe 26]
[1]
  pKd: > 10.00

## TATTTGACATCAGGAAAATTTTTCTGTAGTTA / ACAGAAAAATTTTCCTGATGTCAAATA [probe 10(-7A)]
[1]
  binding signal (fold weaker than probe 10): 8

## TATTTGACATCAGGAAAATTTTTCTGTA / ATTATACAGAAAAATTTTCCTGATGTCAAATA [probe 29]
[1]
  binding signal (fold tighter than probe 19): 13

## TATTTGACATCAGGAAAATTTTTCTGTTTAAA / ACAGAAAAATTTTCCTGATGTCAAATA [probe 6(-11T,-7A)]
[1]
  binding signal (fold weaker than probe 6(-11T)): 110

## TGGTTGACTTTTGCCAGATACTGAGGCTGGC / GCCTCAGTATCTGGCAAAAGTCAACCA [probe 13]
[1]
  pKd: 7.00

## TATTTGACATCAGGAAAATTTTTTGGAATAAT / TCCAAAAAATTTTCCTGATGTCAAATA [probe 18(-12A)]
[1]
  binding signal (fold tighter than 17(-12A)): 300

## TATTTGACATCAGGAAAATTTTTCTGTTTAAT / ACAGAAAAATTTTCCTGATGTCAAATA [probe 6(-11T)]
[1]; ~120-fold tighter than 5(-11T)
  binding signal (fold weaker than probe 6): 1000

## TATTTGACATCAGGAAAATTTTTCTGT (double strand) [probe 1]
[1]
  pKd: 7.21

## AAAAAAAGAATTTGACATCAGGAAAATTTTTTGGT (double strand) [probe 24]
[1]
  pKd: 9.72

## AAAAAAAGAATTTGACATCAGGAAAATTTTTTGGT / AGCAACCAAAAAATTTTCCTGATGTCAAATTCTTTTTTT [probe 27]
[1]
  pKd: > 10.00

## TGGTTGACTTTTGCCAGATACTGAGGCTGGCT / GCCTCAGTATCTGGCAAAAGTCAACCA [probe 12]
[1]
  pKd: 7.96

## TATTTGACATCAGGAAAATTTTTCTGTTTAA (double strand) [probe 22(-11T)]
[1]
  pKd: 6.92

## GGAAAATTTTTTGGTATAAAAGA / ACCAAAAAATTTTCC [probe 9(-7A)]
[1]
  binding signal (fold weaker than probe 9): 710

Source: article PMC3753650
